Test results from the supplement of paper PMC10724198.
± gives the standard deviation of the averaged measurements.

Tested on: Saccharomyces cerevisiae
Test: protein stability index of tFT-peptide fusion (C-terminal peptide) (PSI (0-1 scale)); higher = more stable (slower turnover)
Conditions: genetic background: wild type; temperature: 30 C
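Note: PSI is a weighted mean of sequencing reads over stability bins, variants kept only with over 10 reads, mCherry proximal and sfGFP distal, peptide attached via GGGS linker.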

In order of falling protein stability index:
1. TARSTSPHHIPR  0.835 ± 0.22
2. SRWDSDRGGERR  0.805 ± 0.027
3. SRLPPHSPVHAS  0.787 ± 0.042
4. SPWFRSAASTPT  0.786 ± 0.082
5. STHLPPLPATLP  0.784 ± 0.1
6. SWTEPISNTVLP  0.77 ± 0.034
7. SPSLPSLNRCSL  0.769 ± 0.016
8. SPDFSVITKSYL  0.764 ± 0.032
9. SRTLPHRTAPHC  0.758 ± 0.054
10. SSESPPLLPRPL  0.754 ± 0.032
11. SQLAGPPLPPPT  0.751 ± 0.021
12. SPPPALPPPRPL  0.749 ± 0.031
13. SPSPLPLSPSPL  0.749 ± 0.086
14. SPLPPSRSVHCA  0.748 ± 0.072
15. SRSAPPPSPGMT  0.746 ± 0.052
16. SPLSPAVPSTAL  0.742 ± 0.056
17. SPPLPPPPPFPL  0.74 ± 0.053
18. SPLTCKSLRAQR  0.738 ± 0.022
19. SPSRPQPPPLSA  0.738 ± 0.061
20. SPSVRSPFSLPP  0.7383 ± 0.0052
21. SSLPALRSPCHP  0.738 ± 0.06
22. SSPLWDGLPRLT  0.736 ± 0.028
23. SPTPTSLTPPDF  0.733 ± 0.049
24. SVRAHGDIQIPR  0.732 ± 0.073
25. SPSSSPSPFPVP  0.731 ± 0.063
26. TAKGSSIMCVKI  0.729 ± 0.05
27. SSASSLTIYTRG  0.728 ± 0.024
28. STPPPPHSASRS  0.728 ± 0.059
29. SVYLPFPSGLLL  0.728 ± 0.073
30. SPSPSSLPPPLR  0.726 ± 0.052
31. SRGVSIQQSIKI  0.726 ± 0.037
32. SSLPPLRPFSPS  0.726 ± 0.075
33. SSPPPPVPPPPS  0.725 ± 0.082
34. STTLKIHRKNRK  0.725 ± 0.063
35. SVCLLKSWHERQ  0.725 ± 0.033
36. SPEFIQAIQNPV  0.724 ± 0.049
37. SSKVFCRVAKRE  0.724 ± 0.026
38. SPHPPPPPSPPP  0.723 ± 0.059
39. STVTSGCLKRIS  0.723 ± 0.03
40. SPPPPPVHPSSP  0.722 ± 0.019
41. SSRLLRGGTGFL  0.722 ± 0.029
42. STSSPSSSTLLP  0.719 ± 0.031
43. SRRSTIRCSTSC  0.717 ± 0.036
44. STTQFTLSATRI  0.717 ± 0.093
45. SRFPPYALAHRP  0.716 ± 0.2
46. SRKKSKQYRQEK  0.716 ± 0.039
47. STSWDDLLYHSG  0.716 ± 0.059
48. SPPLTLPPYPPP  0.7149 ± 0.0031
49. SSLPPPPRSPPH  0.715 ± 0.029
50. SSPSPALLFPAR  0.715 ± 0.036
51. SPPPPPLPPSPR  0.713 ± 0.0078
52. SPSPPSFRPSLH  0.712 ± 0.12
53. SSLLLLFYPPLP  0.712 ± 0.016
54. SRAPHPPPPTLP  0.711 ± 0.021
55. SRGGKMRPGGGG  0.711 ± 0.012
56. SPRFSPPAILHN  0.71 ± 0.0091
57. SSPLPPPHASHP  0.7104 ± 0.0043
58. SRPRPSPSPFIA  0.708 ± 0.045
59. SVFVDNLAFSLD  0.708 ± 0.071
60. SPPYPPPPVAST  0.707 ± 0.013
61. STILSAEKTKLG  0.707 ± 0.02
62. SVLWLSSLRVPL  0.7074 ± 0.0032
63. TCTIQSEDFHEI  0.707 ± 0.063
64. SRARADTSRRRA  0.7061 ± 0.0059
65. SSLSPPPPLPPW  0.706 ± 0.075
66. SVHRRRSLLTPL  0.706 ± 0.05
67. SPPLPPTPPVTT  0.705 ± 0.19
68. SSFGPSFLTLFF  0.70403 ± 0.00044
69. STAELSNSLIGR  0.703 ± 0.033
70. SPRLPAPPPPPQ  0.702 ± 0.075
71. SRPPTFPPFFPS  0.702 ± 0.015
72. SSPPSPPPPTPS  0.702 ± 0.031
73. SPLSPPHRHNTT  0.701 ± 0.017
74. SPSPPSNPLPSP  0.701 ± 0.024
75. SRPPLLPTPPPS  0.701 ± 0.047
76. SPLEFPLLPSGV  0.7 ± 0.064
77. SPPTCPNQLGPP  0.7 ± 0.074
78. STNIDQKKKEEK  0.7 ± 0.03
79. SPEVIHVVFCDL  0.697 ± 0.043
80. SYLWRINVSGCV  0.6955 ± 0.0013
81. SPPRPPRPRYLF  0.6947 ± 0.0062
82. SPQFLLPRALSP  0.695 ± 0.0042
83. SSNSRPTGSGGS  0.694 ± 0.1
84. SVSVFLMGLRGT  0.694 ± 0.015
85. SVKTGAAKDRLE  0.6929 ± 0.003
86. SPFRATPYPLLP  0.6909 ± 0.0031
87. SPLPPPPRPPLP  0.691 ± 0.039
88. SPPPPPPRPPPP  0.691 ± 0.015
89. SSRYVATANICR  0.69 ± 0.013
90. SSTVGKEGTSRI  0.69 ± 0.048
91. SSVNRTADGTKP  0.69 ± 0.02
92. TDNIRIERYKEQ  0.689 ± 0.064
93. SPRKTAVIGGTT  0.688 ± 0.034
94. SPSSPPSKCLSL  0.688 ± 0.039
95. SVGFYMLECVDD  0.688 ± 0.0099
96. SVLVLGRSRPSF  0.688 ± 0.047
97. SVYLKLSECRSV  0.6877 ± 0.0018
98. SRSRPLCGVSGV  0.687 ± 0.052
99. SPGNLPMSSSLL  0.686 ± 0.022
100. SPPPPPAPHPCP  0.686 ± 0.03
101. SYSSILPPLSSA  0.686 ± 0.022
102. SPCVPTPSRPAS  0.685 ± 0.079
103. SRLRFSIAPSIF  0.685 ± 0.022
104. SSPSFVVFPFVS  0.685 ± 0.017
105. TESGVCWCRREV  0.685 ± 0.04
106. SPDGVEILPIRG  0.684 ± 0.017
107. SPGLYGPLSRGM  0.684 ± 0.063
108. SRVVHSHRSFRP  0.6843 ± 0.0047
109. SVSCVSRTVAPS  0.684 ± 0.027
110. TAPPPSQTPPRT  0.684 ± 0.0076
111. SRHGFLVNMCTL  0.683 ± 0.028
112. SSSYPFPAPALR  0.683 ± 0.043
113. SRHGRTTKDFLQ  0.682 ± 0.014
114. SSLRPPPPLPPP  0.682 ± 0.012
115. SPLPRLPPGPLP  0.68 ± 0.03
116. STGSAISSLSDR  0.68 ± 0.11
117. STRLFTHPRFLP  0.68 ± 0.013
118. STYIMTFTSWEP  0.68 ± 0.0078
119. SRPRPPPTPALP  0.679 ± 0.0056
120. SSSCRGGVSVLV  0.679 ± 0.044
121. SSSRHHTSLFSP  0.679 ± 0.014
122. SSGASTSIVSTL  0.678 ± 0.015
123. SVTPSPPPSRPF  0.678 ± 0.057
124. SPPPPYPSLFPL  0.677 ± 0.034
125. SPRLSAPPPPPP  0.6766 ± 0.0046
126. SSCWRAWAVNGL  0.677 ± 0.063
127. SSFGSALRPRGV  0.677 ± 0.029
128. SSASDVYQVINS  0.676 ± 0.009
129. SRRGVVGLRVGI  0.674 ± 0.033
130. SVLRPPAAPPFL  0.674 ± 0.046
131. SVVSLLCQFLLG  0.673 ± 0.13
132. SRVERRRTSREG  0.672 ± 0.083
133. SSPLPPSLPSSR  0.671 ± 0.025
134. SRCFGGRCQVIE  0.67 ± 0.02
135. SVTLYLTPPSLT  0.67 ± 0.062
136. SPPSRLRPAILP  0.668 ± 0.032
137. SVLDAVGGSVTA  0.668 ± 0.092
138. TASAGLVAAATI  0.668 ± 0.034
139. TDYSSPKTSLSR  0.668 ± 0.056
140. SPGDVVVAVGGG  0.6669 ± 0.0037
141. SPPRAGTPTSRP  0.667 ± 0.097
142. SSFPPPPAAPPP  0.667 ± 0.041
143. SPPQTETGAQRP  0.666 ± 0.051
144. SSPSSLPAPPSA  0.666 ± 0.039
145. SPPGTCPTIRPS  0.664 ± 0.014
146. TEEVRVRVQTEL  0.663 ± 0.035
147. SPTPHTLRLLPT  0.662 ± 0.011
148. SVDEARSVRCVI  0.661 ± 0.025
149. SYVLIYAPLSSL  0.661 ± 0.036
150. SPPSPGLDPVCP  0.66 ± 0.089
151. SRLGFPFTGGGR  0.6597 ± 0.0062
152. TAATLVYKQNQK  0.66 ± 0.12
153. TAPSGIYFSLPL  0.66 ± 0.054
154. SPLDSPPLSSPP  0.659 ± 0.028
155. SRNFSIQILRER  0.659 ± 0.019
156. SSYYTGVVTACL  0.659 ± 0.052
157. SVSTDTLQVYAI  0.658 ± 0.013
158. SRSGVKKDIRKL  0.657 ± 0.059
159. SVGVGSFVVLGV  0.6543 ± 0.0024
160. SVTDCTADHASV  0.653 ± 0.056
161. SYPTRSKSAYSL  0.652 ± 0.059
162. SPGSVIVSASLL  0.651 ± 0.039
163. SPPPASDHPNPL  0.648 ± 0.063
164. TCPPAPSTGPST  0.648 ± 0.0073
165. TDWCPQSCVCSL  0.647 ± 0.051
166. SPFEASSPQVLT  0.644 ± 0.0094
167. SPISFIHPHISG  0.644 ± 0.017
168. STSRSFFFCSFL  0.644 ± 0.072
169. SVKHTFAHSVNS  0.6442 ± 0.0018
170. STPRLERDGTTI  0.635 ± 0.014
171. SPLLPPPPSPPL  0.633 ± 0.081
172. SSPPPAFPRASP  0.633 ± 0.015
173. SVFFFLPIYFPF  0.633 ± 0.033
174. SVGGVGVEIQSV  0.629 ± 0.15
175. SPPPTPLPPPPP  0.628 ± 0.094
176. SPRLPPSPPPDL  0.628 ± 0.023
177. SPVGCYAIIARM  0.628 ± 0.042
178. SPPLSFPTLQLF  0.625 ± 0.15
179. SRMRADRYWRNY  0.622 ± 0.019
180. SSRPPLPPPRIH  0.618 ± 0.017
181. SSRRVGRWGGLG  0.618 ± 0.11
182. SSLPRPSHSLSL  0.617 ± 0.068
183. SRWTLRTSMDLG  0.616 ± 0.013
184. SPVHPSQHLWPP  0.615 ± 0.021
185. SPLPPPLCPPPL  0.608 ± 0.034
186. SPPPPPPRSPPL  0.606 ± 0.0074
187. SPFLSLPHPSFP  0.6053 ± 0.0013
188. SRISSGKFTGAV  0.601 ± 0.041
189. SVPTSLCYSFSP  0.5957 ± 0.0034
190. SSWWPVRRTRLG  0.587 ± 0.022
191. SVRHPPWDHRPP  0.571 ± 0.083
192. SYGWYRVRLLDC  0.57 ± 0.088
193. SPVRSQPALLVV  0.565 ± 0.0096
194. SYVYMIQRANAV  0.5609 ± 0.004
195. SPRLRSRQVALS  0.556 ± 0.17
196. SRLRVVRCVSWV  0.549 ± 0.1
197. SVWVCLASWCCG  0.5487 ± 0.0038
198. SPPLLLPNLCPC  0.543 ± 0.023
199. SPPVPPLPAPAT  0.539 ± 0.012
200. SPLSLSFLLLCL  0.524 ± 0.028
201. STVKARVLIITS  0.5231 ± 0.0032
202. SRPSSFRLRFLH  0.393 ± 0.18
